According to article PMC6351562, “Structure, function, and inhibition of drug reactivating human gut microbial β-glucuronidases” (Scientific Reports, 2019):
Where “and” joins values, the source holds several entries; their conditions need not be identical. Equal values may be shown once. Marks after values point to notes of the source that are not given here.

Tests used:
[1] = substrate: O=C(O)[C@H]1O[C@@H](Oc2ccc([N+](=O)[O-])cc2)[C@H](O)[C@@H](O)[C@@H]1O; experiment: purified protein, by the assay type; details: other: pNPG as substrate
[2] = substrate: O=C(O)[C@H]1O[C@@H](Oc2ccc([N+](=O)[O-])cc2)[C@H](O)[C@@H](O)[C@@H]1O; experiment: purified protein, by the assay type; assay type: biochemical, Ruminococcus gnavus; details: other: pNPG as substrate, optimal pH 6.5, apparent value estimated at low pNPG concentrations, 37.0 °C

B1: Faecalibacterium prausnitzii GUS (FpGUS) (Faecalibacterium duncaniae) (protein)
chain: MNRSLLYPRATTTRRLIGLDGMWRFSFDPESKGVEAGWALDLPSSLSMPVPASFCDLFTDKASREYCGDFWYETSFFVPAEWSGWDIVLRFGSVTHRARVFVNGVEVAQHEGGFLPFDATVTNIVRYNQFNKLSVLANNELSETMLPAGTTCTLADGRKIAAPYFDFYNYAGIHRPVWLMALPKERVLDYSTRYRLTETGAEIDYTVSTNGPHPVTVELYDGTTRVAESSGTTGTLVVKNARLWNVHAAYLYDLVIRIHEGSAVVDEYLDRIGIRTFEIRHGRFLLNGSPVYLRGFGRHEDADIRGRGLDLPTVKRDFELMKWIGANCFRTSHYPYAEEIYQMADEEGFLIIDEVPAVGFMQSTANFLAANQGNGRQQGFFEKETTPALLKNHKAALTDMIDRDKNHPSVIAWSLLNEPQCTSAGTEEYFKPLFELARRLDPQKRPRTYTVLMTSLPDTSKGQRFADFVSLNRYYGWYVLGGAGLADAEAAFHHEMDGWAKVLHGRPLIFTEYGTDNLSGAHKLPSVMWSAEYQNEYLEMTHAVFDHYDFVQGELVWNFADFQTTEGILRVDGNKKGIFTRQRQPKDAAYLFRKRWTTLPVDFKKRKK
B1 was tested, and the Km ([1]; optimal pH 6.0, 37 °C) was 2200 ± 300 µM, the kcat ([1]; optimal pH 6.0, 37 °C) was 58 ± 4 s⁻¹ and the kcat/Km ([1]; optimal pH 6.0, 37 °C) was 27000 ± 2000 M⁻¹ s⁻¹.

B2: Streptococcus agalactiae GUS (SaGUS) (Streptococcus agalactiae 2603V/R) (protein)
chain: MLYPLLTKTRNTYDLGGIWNFKLGEHNPNELLPSDEVMVIPTSFNDLMVSKEKRDYIGDFWYEKVIEVPKVSEDEEMVLRFGSVTHQAKIYVDGVLVGEHKGGFTPFEVLVPECKYNNEKIKVSICANNVLDYTTLPVGNYSEIIQEDGSIKKKVRENFDFFNYAGVHRPLKLMIRPKNHIFDITITSRLSDDLQSADLHFLVETNQKVDEVRISVFDEDNKLVGETKDSRLFLSDVHLWEVLNAYLYTARVEIFVDNQLQDVYEENFGLREIEVTNGQFLLNRKPIYFKGFGKHEDTFINGRGLNEAANLMDLNLLKDMGANSFRTSHYPYSEEMMRLADRMGVLVIDEVPAVGLFQNFNASLDLSPKDNGTWNLMQTKAAHEQAIQELVKRDKNHPSVVMWVVANEPASHEAGAHDYFEPLVKLYKDLDPQKRPVTLVNILMATPDRDQVMDLVDVVCLNRYYGWYVDHGDLTNAEVGIRKELLEWQDKFPDKPIIITEYGADTLPGLHSTWNIPYTEEFQCDFYEMSHRVFDGIPNLVGEQVWNFADFETNLMILRVQGNHKGLFSRNRQPKQVVKEFKKRWMTIPHYHNKKNSVK
B2 was tested, and the Km ([1]; optimal pH 6.5, 37 °C) was 170 ± 10 µM, the kcat ([1]; optimal pH 6.5, 37 °C) was 120 s⁻¹ and 122 s⁻¹ and the kcat/Km ([1]; optimal pH 6.5, 37 °C) was 720000 ± 30000 M⁻¹ s⁻¹.

B3: Bacteroides dorei GUS (BdGUS) (Phocaeicola dorei CL02T12C06) (protein)
chain: SEISITDSWKYKAENDERFSSMDWNDSDWVTVDLPHTWNAGDVIDEQRGYRRGISWYRKKLFIPSEARDKKITLRFDGVASKADVYLNGKLLKTHLGAYTAFGVDITDICEVGKENLLAVKVDNSSSLGEILPPVSGDFSIFGGIYRRVFLQWTEKVHFVTEPYAAVPVRIQTPEVSVSEASMQIVAFLKNDFTDTKHVHVNVFLCDEMNRIVKEKQLKLKLIPGRKYPISTSVGRIENPHLWSPELPYLYTVKVQVCDAKNGEMYQEVISPVGFRWFSVDKTGFYLNGKYLKLRGAARHQDYAGLGTAIPVEMNRRDMRLLKEMGANFVRISHYPQDPEIYRACDELGLIVWSEICVVNEVRKNAAFAHNCKEMLKEMILQNYNHPSVVLWGAMNELWDYHKQAIALARELEALKKELDPYRLSCVAFHAFTWEKPYTQSSKEMFSISDVNGVNVYESWYQGDSATIAPMFDKFCSYSTAKPRFLSEFGAGSDERIHSYTPRTFDFTPEFQLDFNRRYINEMEKRPDYIGYSIWNLVDFQVDGRGDSKPNLNQKGMLTEDRRKKEIYYYCQARWSDIPMIHIAGADWTKRVEICDDSINVRKISVFSNQKTVELIHNGKSLGVREVVNGEAVFAVPFINGENLLDARSGALSDRLKIQMKLLSSRLTDSDVLLDGLCINLGQEHCYFIDPQLQEIWIPDKPYTKGSWGYMDGKPFNSWPGSSHDGVRYGVGADIKNTFLEPLFQTFLIGTTCYRLDVPDGVYEIGFYFTEPFSKDERKNIVRTGVSAEGQRVFDVSVNGEKLIDSLNLADSYGEQTAVVKTLVVNVRNHEGLEILLSPQKGQGVISGLKVKKIR
Protein B3 has a Km ([1]; optimal pH 6.0, 37 °C) of 1400 ± 100 µM, a kcat ([1]; optimal pH 6.0, 37 °C) of 7.5 ± 0.4 s⁻¹ and a kcat/Km ([1]; optimal pH 6.0, 37 °C) of 5200 ± 500 M⁻¹ s⁻¹.

B4: Lactobacillus rhamnosus GUS (LrGUS) (Lacticaseibacillus rhamnosus) (protein)
chain: METSLLYPVTNDQRTDQKLDGLWQFKFDEAGEGEKSGWETGFHDGVSMPVPASFNDFFTDKASREYTGDFWYSRNFFVPSAAKGKALFLRFDAVTHRATIFVNGKEIRTHEGGFLPFAADISEAVKYGAENTVVVKGNNELSREALPAGDTITLRNGKKMVRPFFDFYNYSGLNRSVHLLSLPQERVLDYTTTFALAGNDATVNYTVETNGDAPVTVSLADADGQVVATAQGKQGALQVQNAHLWQVRNAYLYTLTIQLGDDTQTPLDTYTDRIGIRTIKISGTDILVNDKPIYLKGFGRHEDSPFAGRAFDLNVEKKDFALMKWIGANSFRTSHYPYDEQVYKIADEEGFLLTDEVPAVGFKMAAAAFLGGLNQSFFKGPWLKKLHERHIDQIRDLIKRDKNHPSVLAWSLFNEPDTIDENAVPYFKQIFDESKDLDPQGRPRTFTLSEDDTIETSKVLDFPDFYMLNRYPGWYHFGGYQISDGEAGLRDEMDKWQKAGVKKPVVFTEFGADTEAGLHKLPSVMWTEEYQVEVLKMFSRVFDDYDFIKGEQVWNLADFQTVEGNMRVNGNKKGIFTRDRQPKAAAFFYHDRWNKLPLDYKAK
With B4 the Km ([1]; optimal pH 4.5, 37 °C) was 1500 ± 100 µM, the kcat ([1]; optimal pH 4.5, 37 °C) was 10 ± 0.7 s⁻¹ and the kcat/Km ([1]; optimal pH 4.5, 37 °C) was 6700 ± 300 M⁻¹ s⁻¹.

B5: Bacteroides uniformis GUS (BuGUS) (Bacteroides uniformis str. 3978 T3 ii) (protein)
chain: QRQTQTINDSWKFLKGECTAAADSAFDDSKWTSIHLPHTWNTDAYTEKDYYRGTGWYRRQLTLPQGWKEKQIILRLDAAGKSATIYINGKNVGEHAGGYTACSFNITPFLSFDTPNTLAVCVDNARQDIAPISGDFTFFGGIYRDVWLTAVPNQHFNLTNHGSDGLFISTPQVSEEQATLSIRGEVKNDAPEKATLELTHTIYRPDGTLLQTLKKNIQLKAGETYAFSNEATPVLKPELWTPETPRLYRVETTLRNRKTKTLLDQSNHYTAFRWFRFDGDEGFFLNGKPYKLRGICRHQDQKPIGPALTDEMHRRDFLLMKEMGANFIRISHYPQDDALLEMCDKLGMLAWEEIPIIDIVPNTPGYGDNCERNLREMIRQHYNHPSIITWGYMNEILLVTQRKYKTEAELKPVLERTLALANRLERVLKEEDSTRISTMAFHGSNSYNETGLSKITDIVGWNLYQGWYGGDLTGFEKFLAQQHQNHPTHPMIVSEYGAGSDKRLHSLHPRAFDFSIEYQQKYLEHYLPVLEDTPYICGGTHWNFIDFSSALRDESMPRINNKGLVYADRTPKDVYHYYQAAWRKDIPVLHIASRDWTDRAGVQQGNAPVYLPVKIYTNLSEVELFIDGISLGKQKTENYTATFEVPFSNRNPFLFAQGNYQGKTVQDGLRINFTPIPACLDANNLKGLELAVNVGSQCFFTSDESQLTWLPDQPYAAGSWGYIGGKEGTAQTEIQNTADGPLFQTLRNEIEGYRFDAPQGVYEIELLFTDIFRRNAGIAYQLDRNGQQENRESTFGISINGEVVEESLSPCKESGYFRALRKKYYITNDKEYIDIRFHSTSGTCFLNGIKLRNIY
B5 was tested, and the Km ([1]; optimal pH 5.5, 37 °C) was 540 ± 60 µM, the kcat ([1]; optimal pH 5.5, 37 °C) was 37 ± 2 s⁻¹ and the kcat/Km ([1]; optimal pH 5.5, 37 °C) was 71000 ± 6000 M⁻¹ s⁻¹.

B6: Eubacterium eligens GUS (EeGUS) (Lachnospira eligens ATCC 27750) (protein)
chain: MLYPVLTQSRLLSDLSGVWDFKLDNGKGFEEKWYEKPLKDADTMPVPASYNDLKEGTDFRDHYGWVFYQRNISVPEYVKSQRIVLRCAAVTHYAMIYLNGKLICEHKGGFLPFEVELNDDLQDGDNLLTIAVNNVIDYTTLPVGGKANMMSGMMGGMGAGASDKPQNNPNFDFFNYCGITRPVKIYTTPETYINDITVTADIDFTKEEPSAVLNYNVEIKGKDYNNITCKVELFDEEGTKLSETEGSEGTFEISNVRLWQPLNAYLYKIKVTAGQDVYTLPYGVRSVRVDGTKFLINEKPFYFKGYGKHEDTFPNGRGINLPMNTKDISIMKWQHANSFRTSHYPYSEEMMRLCDEEGIVVIDETTAVGVNLQFGGGANFGGERIGTFDKEHGVQTQEHHKDVIRDLISRDKNHACVVMWSIANEPDSAAEGAYDYFKPLYDLARELDPQKRPCTLVSVQGTTADTDCSSQLSDVICLNRYYGWYFGGPDLEVSEIGLRKELSDWGKLGKPVMFTEYGADTVSGLHDTTSVMYTEEYQVEYYEMNNKVFDEFDFVVGEQAWNFADFATSQSLLRVQGNKKGLFTRDRKPKMVAHYFRNRWSTIPEFGYKTK
Work on B6 yielded a Km ([1]; optimal pH 6.5, 37 °C) of 223 ± 8 µM, a kcat ([1]; optimal pH 6.5, 37 °C) of 120 ± 8 s⁻¹ and a kcat/Km ([1]; optimal pH 6.5, 37 °C) of 540000 ± 20000 M⁻¹ s⁻¹.

B7: Ruminococcus gnavus GUS (RgGUS) (Mediterraneibacter gnavus) (protein)
chain: MLEYSELYPIQNGHRMMQSLDGMWKFQFDPEEIGEKSGWENGLPAPVSMPVPSSFADFFTDHKERDYCGDFWYETEFYLPAEWRNKKIWLRFGSITHRGTVYCNGMEITSHEGGFLPVLADISTVAKPGQVNQVVVKINNELNETSLPCGATKILNNGRKLAKPYFDFFNYSGLQRSVWVIALPEESVKDYSVDYELCGTDALVKYEVVTTGEHPVIVRLLDAEGELVAETEGKEGILQVANAHLWEVRNAYLYQIVILITDGNGVLDEYREKIGIRTVRIEGTQILLNDRPVYLKGFGKHEDFSILGRGFHWGIVKRDFECLKWTNANCFRTSHYPYAEEWYQFADEEGFLIIDEVPAVGMMRSTRNFVAAGSGNYTYFFEALTVPELLKSHIADTEEMITRDKNHPSVIAWSLFNEPETITDYAYEYFKEVFAAAETYDFQSRPMTGAFEKNSKPELCKCYPLCDFICLNRYYGWYISGGPEIEEAEELFRDEMDRWKAKELNVPFVFTEFGTDTMAGLHKLPSIMWSEEYQKEYLEMNFRVFDSYEFVQGELAWNFADFQTTEGIMRVDGNHKGVFTRDRQPKAAAVVFKDRWEKKNELF
B7 was tested, and the Km [2] was 1.4 ± 0.2^b mM, the kcat [2] was 2.8 ± 0.3 s⁻¹ and the kcat/Km [2] was 2000 ± 100 M⁻¹ s⁻¹.
